# According to publication PMC7237134:
# T1: Sgd1 MIF4G-Cterm (MIF4G, MA3 and C-terminal region) (Saccharomyces cerevisiae, UniProt Q06132 330-899)
# T1 sequence: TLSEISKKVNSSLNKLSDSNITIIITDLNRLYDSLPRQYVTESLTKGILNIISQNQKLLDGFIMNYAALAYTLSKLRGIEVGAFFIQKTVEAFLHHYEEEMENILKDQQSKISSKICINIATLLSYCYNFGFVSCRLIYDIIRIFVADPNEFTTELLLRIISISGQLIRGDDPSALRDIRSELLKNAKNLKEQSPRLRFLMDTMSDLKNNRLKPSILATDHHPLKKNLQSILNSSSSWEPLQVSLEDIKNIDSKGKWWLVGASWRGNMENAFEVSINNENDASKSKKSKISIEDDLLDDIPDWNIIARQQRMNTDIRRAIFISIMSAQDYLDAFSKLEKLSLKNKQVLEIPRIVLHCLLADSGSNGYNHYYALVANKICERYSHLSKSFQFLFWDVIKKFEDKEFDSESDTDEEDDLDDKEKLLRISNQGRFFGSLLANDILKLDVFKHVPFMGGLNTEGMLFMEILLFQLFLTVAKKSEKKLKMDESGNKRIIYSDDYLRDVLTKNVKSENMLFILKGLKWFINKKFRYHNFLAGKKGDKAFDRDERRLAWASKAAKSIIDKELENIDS
# T2: Sgd1 MA3-Cterm (Saccharomyces cerevisiae, UniProt Q06132 645-899)
# T2 sequence: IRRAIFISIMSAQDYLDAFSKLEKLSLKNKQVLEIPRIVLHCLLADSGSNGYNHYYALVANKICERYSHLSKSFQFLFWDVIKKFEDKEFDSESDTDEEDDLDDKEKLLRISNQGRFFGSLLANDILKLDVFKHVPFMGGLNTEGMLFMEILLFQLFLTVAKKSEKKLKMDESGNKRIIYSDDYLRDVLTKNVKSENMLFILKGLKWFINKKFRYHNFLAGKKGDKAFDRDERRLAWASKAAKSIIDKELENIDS
# T3: Sgd1 Nterm-MIF4G (Saccharomyces cerevisiae, UniProt Q06132 1-541)
# T3 sequence: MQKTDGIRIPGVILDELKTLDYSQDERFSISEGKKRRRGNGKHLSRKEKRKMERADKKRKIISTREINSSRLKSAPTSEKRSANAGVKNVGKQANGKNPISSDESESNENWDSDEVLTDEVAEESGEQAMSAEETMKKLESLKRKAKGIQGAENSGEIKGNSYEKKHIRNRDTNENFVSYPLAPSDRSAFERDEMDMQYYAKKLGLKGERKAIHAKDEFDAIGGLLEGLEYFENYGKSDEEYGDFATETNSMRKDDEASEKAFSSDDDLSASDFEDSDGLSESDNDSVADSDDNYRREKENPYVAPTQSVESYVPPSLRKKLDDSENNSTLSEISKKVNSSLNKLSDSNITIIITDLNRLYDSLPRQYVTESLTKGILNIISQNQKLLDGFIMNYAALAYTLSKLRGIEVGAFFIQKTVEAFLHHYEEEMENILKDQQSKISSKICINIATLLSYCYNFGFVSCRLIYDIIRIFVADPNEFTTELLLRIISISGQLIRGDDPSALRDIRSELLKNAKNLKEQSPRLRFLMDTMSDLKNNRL
# How the values were obtained:
# Assay in all cases: fluorescence anisotropy
# [1] = biological target: T1, Sgd1 MIF4G-Cterm (MIF4G, MA3 and …)
# [2] = biological target: T2, Sgd1 MA3-Cterm
# [3] = biological target: T3, Sgd1 Nterm-MIF4G
binder,measurement,setting,value
GUAAUGAAAGU (ssRNA) [11 nt Atto647-labelled RNA],binding result,[1],binds
same,binding result,[2],binds
same,binding result,[3],no binding
